Measurements: patent US20050095615

Biological target: His6/LUMIO tag/MBP protein expressed from pET160-GW/MBP [MBP: P0AEX9]

B1: TEV protease (protein)
chain: GESLFKGPRDYNPISSTICHLTNESDGHTTSLYGIGFGPFIITNKHLFRRNNGTLLVQSLHGVFKVKNTTTLQQHLIDGRDMIIIRMPKDFPPFPQKLKFREPQREERICLVTTNFQTKSMSSMVSDTSCTFPSSDGIFWKHWIQTKDGQCGSPLVSTRDGFIVGIHSASNFTNTNNYFTSVPKNFMELLTNQEAQQWVSGWRLNADSVLWGGHKVFMSKPEEPFQPVKEATQLMNELVYSQ
**Q.** B1 was tested. Which “cleavage by TEV protease” value did it give?
**A.** The TEV protease efficiently cleaves the N-terminal sequences from partially purified protein.

**Q.** What about the “digestion with TEV protease analyzed by SDS-PAGE” value of the same protein?
**A.** The results demonstrated that the pET160-DEST vector can encode a functional TEV cleavage site.
